Source: PMC12554370, “MdMAPK6-mediated phosphorylation of MdWRKY9 regulates apple fruit ripening through interaction with MdERF5L”
Where a chain is given by its changes, count along the chain named.

Legend:
MdERF5L [1] = molecular target: T1, MdERF5L (Malus domestica, UniProt A0A498JN73 1-332); assay: EMSA; cold probe competes; LightShift Chemiluminescent EMSA kit (Thermo), per manufacturer's protocol; buffer, salt, pH and temperature not stated; conditions: protein: recombinant; tags: GST (pGEX-4T-1); label: biotin (hot probe); blunt
T1 sequence (A0A498JN73 entry or part of it): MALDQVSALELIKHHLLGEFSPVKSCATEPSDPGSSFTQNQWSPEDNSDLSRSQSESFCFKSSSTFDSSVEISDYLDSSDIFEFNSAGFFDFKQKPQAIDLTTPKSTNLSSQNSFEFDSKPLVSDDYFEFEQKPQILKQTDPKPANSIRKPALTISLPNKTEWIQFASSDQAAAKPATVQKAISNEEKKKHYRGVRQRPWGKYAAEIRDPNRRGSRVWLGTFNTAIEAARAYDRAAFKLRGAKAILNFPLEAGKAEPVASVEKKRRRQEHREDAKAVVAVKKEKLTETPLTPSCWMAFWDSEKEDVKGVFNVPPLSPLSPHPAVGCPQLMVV

MdERF5L [2] = molecular target: T1, MdERF5L; assay: EMSA; mutations disrupted binding; LightShift Chemiluminescent EMSA kit (Thermo), per manufacturer's protocol; buffer, salt, pH and temperature not stated; conditions: protein: recombinant; tags: GST (pGEX-4T-1); blunt
MdWRKY9 = MdWRKY9 (Malus domestica, UniProt D9ZJG3 1-520); assay: EMSA; LightShift Chemiluminescent EMSA kit (Thermo), per manufacturer's protocol; buffer, salt, pH and temperature not stated; conditions: protein: recombinant; tags: GST (pGEX-4T-1) or His (pET-32a); label: biotin (hot probe); blunt
Sequence of MdWRKY9 (D9ZJG3 entry or part of it): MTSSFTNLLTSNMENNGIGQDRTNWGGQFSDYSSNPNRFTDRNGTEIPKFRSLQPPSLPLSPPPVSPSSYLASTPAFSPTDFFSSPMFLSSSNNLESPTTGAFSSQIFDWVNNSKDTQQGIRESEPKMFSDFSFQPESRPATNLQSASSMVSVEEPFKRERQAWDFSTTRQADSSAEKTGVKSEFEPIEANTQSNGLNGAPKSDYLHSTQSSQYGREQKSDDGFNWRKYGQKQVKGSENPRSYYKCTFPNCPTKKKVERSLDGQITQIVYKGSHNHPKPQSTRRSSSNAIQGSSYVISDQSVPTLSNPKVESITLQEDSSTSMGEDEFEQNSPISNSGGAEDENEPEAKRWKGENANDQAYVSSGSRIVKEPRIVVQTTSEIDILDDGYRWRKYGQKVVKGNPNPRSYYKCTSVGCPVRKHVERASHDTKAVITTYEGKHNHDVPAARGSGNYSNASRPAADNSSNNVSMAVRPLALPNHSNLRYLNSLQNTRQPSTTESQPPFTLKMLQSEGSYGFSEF

B1: MdACS1-DRE probe (dsDNA)
DNA 1: AAAATAGAGGAGAAAAATGGCCGACAAAATTTGTTGTGGCTACTA
DNA 2: TAGTAGCCACAACAAATTTTGTCGGCCATTTTTCTCCTCTATTTT
Q: Does B1 bind (MdERF5L [1])?
A: binds

B2: MdACS1-DRE mutant probe (dsDNA)
DNA 1: B1 DNA 1 with C21T, G23T, C25G
DNA 2: B1 DNA 2 with G21C, C23A, G25A
Q: Does B2 bind (MdERF5L [2])?
A: no binding

B3: MdERF5L-W-box probe (dsDNA)
DNA 1: AATTTGTATATCGTTTTCTGGGTCAATGATACGTTTTTTTATATTA
DNA 2: TAATATAAAAAAACGTATCATTGACCCAGAAAACGATATACAAATT
Q: Does B3 bind (MdWRKY9)?
A: binds
